In the nanobody polyreactivity screen of Harvey et al. (2022):

assay: yeast display, Sf9 membrane polyspecificity reagent, FACS + sequencing; frameworks hold sequencing errors
In short: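 After 36–48 hours of galactose induction, yeast (Saccharomyces cerevisiae BJ5465) displaying a synthetic nanobody library were stained at 4 °C for 1 hour with 10% biotinylated, detergent-solubilized Sf9 membrane reagent. Streptavidin microbeads enriched the stained cells before FACS sorting into low and high (top ~1%) gates on anti-HA and streptavidin fluorescence. Each clone's polyreactivity label reflects its gate of origin.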

Q: For “QVQLVESGGGLFQAGGSLRLSCAASGRIFGWYAMGWYRQAPGKDRELVAAMSSSTSTYYADSVKGRFTISRDNEKNTVYLEMNSLKPEDTAVYYCNADWYYQRGQNYWFRYDYWGQGTQVTVCS”, which “polyreactivity (PSR sort gate)” value is on record?
A: high polyreactivity

Q: For “QVQLVESGGGLFQAGGSLRLSCAASGRIFGYNSMGWDRQAPGKERELVAAIRRRGGTTYYADSVKGRFTISRDNAKNTVYLQMNSLKPEDNAVYYCAADLTFSYRQSAGRYSTYGYWGQGTQVTVSS”, which “polyreactivity (PSR sort gate)” value is on record?
A: high polyreactivity

Q: With “QVQLVESGGGLFQAGGSLRLSCAASGRTFAIYDMGWYRQAPGKEREVVAAIDYSDGSTYYADSVKGRFTISRDNAKNTVYLQMNSLKPEDTAVYYCAADYDAIYLWWGYDYWGQGTQVTVSS” as the sequence, how does the “polyreactivity (PSR sort gate)” value read?
A: low polyreactivity

Q: For “QVQLVESGGGLFQAGGSLRLSCAASGRTFEINAMGWYRQAPGKERELVARISWSGGRTYYADSVKGRFTISRDNAKNTVYLQMNSLKPEDTAVYYCAAVLYSGGNYDSWGQGTQVTGSS”, which “polyreactivity (PSR sort gate)” value is on record?
A: high polyreactivity

Q: With “QVQLVESGGGLFQAGGSLRLSCAASGRTFGKNAMGWYRQAPGKEREFVAAITSRGGSTYYADSVKGRFTISRDNAKNTVYLQMNSLNPEDTGVYYCNREYKRPSQRNEHFYCGQGTQVTVSS” as the sequence, how does the “polyreactivity (PSR sort gate)” value read?
A: low polyreactivity

Q: Which “polyreactivity (PSR sort gate)” value does the source give for “QVQLVESGGGLFQAGGSLRLSCAASGRTFGYNVMGWYRQATGKERELVAGITSSGSTNYADSVKGRFTISRDNVKNTFYLQMNSLKPEETAVYYCAAGDRRWGFQVGYWGQGTQVTVSS” here?
A: high polyreactivity

Q: Which “polyreactivity (PSR sort gate)” value does the source give for “QVQLVESGGGLFQAGGSLRLSCAASGRTFRDYVMGWYRKATGKERELVAAISTRGASTYYADSVKGRFTISRDNAKNTVDLQMNSLKPEDTAVYYCAARSTRRGNEYDYWGQGTQVTGSS” here?
A: high polyreactivity

Q: Which “polyreactivity (PSR sort gate)” value does the source give for “QVQLVESGGGLFQAGGSLRLSCAASGRTFRSYAMGWYRQAPGKERELVAAISTGGSTYYADSVKGRFTISRDNAKNTVYLQMNSLKPEDTAVYYCAAEFNAYTPAGLWYTYYYWGQGTQVTVSS” here?
A: high polyreactivity

Q: Which “polyreactivity (PSR sort gate)” value does the source give for “QVQLVESGGGLFQAGGSLRLSCAASGRTFTWYAMGWYRQAPGKERELVAAISFSGGSTYYADSVKGRFTISRDNAKNTVYLQMNSLKPEDTAVYYCARPSGDAWEGPRMDYWGQGTQVTVSS” here?
A: low polyreactivity

Q: Which “polyreactivity (PSR sort gate)” value does the source give for “QVQLVESGGGLFQAGGSLRLSCAASGRTFWRYAMGWSRQAPGKERELVAAITSGGGSTFYADSVKGRFTISRDYAKNTVDLQMNILKAEVTAVYYCNREYRWGNSLYSRYDYWGQGTQVTVSS” here?
A: high polyreactivity

Q: Which “polyreactivity (PSR sort gate)” value does the source give for “QVQLVESGGGLFQAGGSLRLSCAASGRTIQTYTMGRYRQAPGKERELYAVITTRGGRTYYADSVKGRFTISRDNAKNTFYLQINRLKPEDTGVYYCIKGIPTRSVRSYDYWGQGTQVTVSS” here?
A: high polyreactivity

Q: Which “polyreactivity (PSR sort gate)” value does the source give for “QVQLVESGGGLFQAGGSLRLSCAASGSIFAGYAMGWSRQAPGNERELVATITSSSRTNYADSVKGRFTISRDNAKNTVYLQMNSLKPEDTAVYYCAATSFSVRFTRYYYWGQGTQVTVSS” here?
A: high polyreactivity

Q: With “QVQLVESGGGLFQAGGSLRLSCAASGSIFLYYAMGWYRQAPGKERELDATIRRRDGSTYYADSVKGRFTISRDNAKNTVYLQMNSLIPEDTAVYYCNTAGYYWLHYTMDYWGQVTQVTVSS” as the sequence, how does the “polyreactivity (PSR sort gate)” value read?
A: high polyreactivity

Q: Which “polyreactivity (PSR sort gate)” value does the source give for “QVQLVESGGGLFQAGGSLRLSCAASGSIFYNYGMAWYRHAPGKERELVAAIRASGDSTYYADSVKGRFTISRDNAKNTVYLQMNSLKPEDTEVYYCAARPNQSYYGLYYYWGQGTQVTVSS” here?
A: low polyreactivity

Q: With “QVQLVESGGGLFQAGGSLRLSCAASGSIFYYYAMGWYRQAPGKERELVAAITRSSGSTYADSVKGRFTISGDNAMYTVYVQMNSLKPEDTAVYYCATVQSDWRRNYSYYHWGQATQVTVSS” as the sequence, how does the “polyreactivity (PSR sort gate)” value read?
A: high polyreactivity

Q: For “QVQLVESGGGLFQAGGSLRLSCAASGSTFGTYAMGRYRPPPAKERELVAAISTGGSTYYADSVKGRFTISRDNAKNTVYLQMNSLKPEDTAVYYCAALADYVRRASDYWGQGTQVTVSS”, which “polyreactivity (PSR sort gate)” value is on record?
A: low polyreactivity

Q: With “QVQLVESGGGLFQAGGSLRLSCAASGSTFGWNAMGWYRHAPGKERELVAAINKSGGRTYYADSVKGRFTISRDNAKNTVYLQMISLKPEDTAVYYCAAVTPIRVTSPDYDYWGQGTQVTVSS” as the sequence, how does the “polyreactivity (PSR sort gate)” value read?
A: low polyreactivity

Q: For “QVQLVESGGGLFQAGGSLRLSCAASGSTFKFNAMGWYRQAPGKEWELVAAISNRGGTTYYADSVKGRFTISRDNAKNTVYLLMNSLKQEDTAVYYCAAGRVQYYYFWGQGTQVTVSS”, which “polyreactivity (PSR sort gate)” value is on record?
A: high polyreactivity

Q: Which “polyreactivity (PSR sort gate)” value does the source give for “QVQLVESGGGLFQAGGSLRLSCAASGSTFPKYEMGWYRQAPGKERELVATISSGTRTYYADSVKGRFTISRDNAKNTVYLQMNSLKPDDTAVYYCAASYQPRKGAHYGYWGQGSQVTVSS” here?
A: high polyreactivity

Q: With “QVQLVESGGGLFQAGGSLRLSCAASGSTIWSYAMGWYRQAPGKERELVASITWSGGSTYADSVKGRFTISRDNAKNTVYFQMNRLKPEDTAVYYCARESTLTYYSDDFDYWGQGTQVTVSS” as the sequence, how does the “polyreactivity (PSR sort gate)” value read?
A: low polyreactivity

Q: For “QVQLVESGGGLFQAGGSLRLSCAASGSTLYEYAMGWYRQAPGKERELVAAINWSGGSTYYADSVKGRFTISRDNAKNTVYLQMNSLKPEDTAVYYCNRVKTGSTYRRRYWSMGYWGQGTQVTVSS”, which “polyreactivity (PSR sort gate)” value is on record?
A: high polyreactivity

Q: Which “polyreactivity (PSR sort gate)” value does the source give for “QVQLVESGGGLFQAGGSLRLSCAATGSTFSGYAMGWYRQATGKDRELVAAIASTGRTYYADSVKGRFTISRDNAKKTVYLQMNSLKPEDTAVYYCAAKRYTVYVHKYEYWGQGTKVTVSS” here?
A: high polyreactivity

Q: For “QVQLVESGGGLFQAGGSLRLSCAATGSTYIRYAMGWYRQAPGKEREFVAAITWSGTGTYYADSVKARFTISRDNAKNTVYLQMNSLKPEDTAVYYCAAEWSWVRYSFDYWGQGTQVTVSS”, which “polyreactivity (PSR sort gate)” value is on record?
A: high polyreactivity

Q: For “QVQLVESGGGLFQAGGSLRLSCADSGRIFTSNAMGWYRQATGKVRELVAVISRRGGSTYYADSVKGRFTISRDNAKNTVYLQMNSLKPEDTAVYYCNARVYWYYPMDYWGQGTQVTVSS”, which “polyreactivity (PSR sort gate)” value is on record?
A: low polyreactivity

Q: Which “polyreactivity (PSR sort gate)” value does the source give for “QVQLVESGGGLFQAGGSLRLSCAPSGRTFSHYAMGWYRQAPGKERELVAAISWSGGRTYYADSVKGRFTISRYNAKNTVYLQMNSLKPEDTAVYYCATDKVSNRRYDYWGQGTQVTVSS” here?
A: high polyreactivity

Q: With “QVQLVESGGGLFQAGGSLRLSSAASGSIFINNGMGWYRQAPGKESELVAAIYSGGSTYADSVKGRFTISRDNAKNTVYLQMNSLKPEDTAVYYCAVDVWLRGLYGYEYDYWGQGTQVTVSS” as the sequence, how does the “polyreactivity (PSR sort gate)” value read?
A: low polyreactivity

Q: For “QVQLVESGGGLFQAGGSLRLSSAASGSTFDPYAMGWSRQAPGKERELVATITYSGGRTYYADSVKGRFTISGDNAKNTVYLQMNSLKPEDTAVYYCAVDVVYWGGDYCGQGTQVTVSS”, which “polyreactivity (PSR sort gate)” value is on record?
A: low polyreactivity

Q: With “QVQLVESGGGLFQAGGSLRLTCAASGSIFTVYSIGLYRQAPGKERELVAGISSGAGTTYADSVKGRFTISRDNAKNTVYLQMNSLIPEVTAVYYCAAYTWDTDHYWYGYVPYDYWGQGTQVTVSS” as the sequence, how does the “polyreactivity (PSR sort gate)” value read?
A: low polyreactivity

Q: Which “polyreactivity (PSR sort gate)” value does the source give for “QVQLVESGGGLFQAGGSLRVSCAASGRTFRVYVMGSYRQAPGKERELVAAIRASGGITYYADSVKGRFTLSRDTAKNTVYLQMNSLKPEDTAVYYCAARPRTRYDYWGQGTQVTVSS” here?
A: high polyreactivity

Q: Which “polyreactivity (PSR sort gate)” value does the source give for “QVQLVESGGGLFQAGGSLSLSCAASGRIYNPNALGWYRQAPGKERELVAAITSGDSTNYADSVKGRFTISRDNAKNTVYLEMNSLKPEDTAVYYCAADWTYPYNSWGQGTQVTVSS” here?
A: low polyreactivity

Q: Which “polyreactivity (PSR sort gate)” value does the source give for “QVQLVESGGGLFQAGGTLRLSCAATGITFRWYAMGWYRQAPGKEMELVAAITYRGGSTHYSDSVKGRFTISRDNAKNTVYLQMNSLKPEDTAVYYCAVRRWPRYRWSDYWGQGTQVTLSS” here?
A: low polyreactivity

Q: Which “polyreactivity (PSR sort gate)” value does the source give for “QVQLVESGGGLFQAGRSLRIRCAASGRILNVYHMGWYRQAPGKERELVAAISSGANTNYAESVKGRFTISRDNAKNTVDLQMNSLKPEDTEVYFCNTEQFYDYDYTFDYWGQGTQVTVSS” here?
A: low polyreactivity

Q: With “QVQLVESGGGLFQAGVSLRLSCAASGSTFDYYAMGWYRQPPAKERELVAAIRYRGGRTYYADSVKWRFTISRDNAKNTVYLQLNSLKPEDTAVYYCAALTIQSSKTYDYWGQGTQVTVSS” as the sequence, how does the “polyreactivity (PSR sort gate)” value read?
A: low polyreactivity

Q: With “QVQLVESGGGLFQAVGSLRLSCAASGSTFIPNAMGWYRQAPGKERELVADISYSGGTTYYADSVKGRFTISRDNAKKTVYLQMNSLKPEDTSVYYCAAVYYTSFYSWPPYDYWGQGTQVTVSS” as the sequence, how does the “polyreactivity (PSR sort gate)” value read?
A: low polyreactivity

Q: Which “polyreactivity (PSR sort gate)” value does the source give for “QVQLVESGGGLFQEGGSLRLSCAPSGSTLVFYAMGWYRHAPGKERELVAAITRSGGSTYYADSVKGRFTISRDNAKNTVYLQRNSLKPEDTAVYNCAADERYINERVSWGQGTQVTVSS” here?
A: low polyreactivity

Q: Which “polyreactivity (PSR sort gate)” value does the source give for “QVQLVESGGGLGHAGGSLRLSCAASGSIFFWYAMGWYRQAPGKERELVAAITQRTGSTYYADSVKGRFTISRDNAKNTVYLQMNSLKPEDTAVYYCAGKRWRRSFTGNYWGLGTQVTVSS” here?
A: high polyreactivity

Q: Which “polyreactivity (PSR sort gate)” value does the source give for “QVQLVESGGGLGQAGASLRLICAPSGSIFLIYCMGWYRQSPGKERELVAAITARGGSTYYADSVKGSFTISRDNAKNTVYLQMNSLKPEDTSVYYCNDVGYPDVGAGTYGYWGQGTQVTVSS” here?
A: low polyreactivity

Q: With “QVQLVESGGGLGQAGGRLRLSCAASGIYYNAMGWYRQAPGNERELVAAITTGDRTNYADSVKGRFTISRDNAKNTVYLQMNSLKPEDTAVYYCNAVVERLSSTARDFAYDYWGQGTQVTVSS” as the sequence, how does the “polyreactivity (PSR sort gate)” value read?
A: low polyreactivity

Q: With “QVQLVESGGGLGQAGGSLRLSCAASGFTFYYYAMGWYRQAPGKERELVAAISYSGGSTYYADSVKGRFTISRDNAKNTVYLQMNSLKPEDTARYYCAADLSTYSRGFDYWGQGTQVTVSS” as the sequence, how does the “polyreactivity (PSR sort gate)” value read?
A: high polyreactivity

Q: Which “polyreactivity (PSR sort gate)” value does the source give for “QVQLVESGGGLGQAGGSLRLSCAASGFTIIYYAMGWYRQAPGKERELVAAISRRGGRTYYADSVKGRFTISRDNAKNTVYLQMNSLKPEDTAVYYCAADGSGTSISYRYKHDYWGQGTQVTVSS” here?
A: high polyreactivity

Q: For “QVQLVESGGGLGQAGGSLRLSCAASGIIFQYYAMGWYRPAPGKERELVAVISSSGTNTYYADSVKGRFTISRDNAKNTVYLQMNSLKPEDTAVYYCNKVYRWFTRFDYWGQGTQVTVSS”, which “polyreactivity (PSR sort gate)” value is on record?
A: high polyreactivity

Q: With “QVQLVESGGGLGQAGGSLRLSCAASGRIFNTYAMGWYRQAPGKERELVAAITRSAGRTYYADSVKGRFTISRDNAKNTGYLQMNSQKPEDTAVYYCAAQYNYGQRSGPYGYWGQGTQVTVSS” as the sequence, how does the “polyreactivity (PSR sort gate)” value read?
A: low polyreactivity

Q: For “QVQLVESGGGLGQAGGSLRLSCAASGRTITFNTMGWYRPAPGKERELVAGIDRGGSTNYADSVKGRFTISRDNAKNTVDLQMNSLKPEDTAVYYCAARNLRYRYRNYDYWGQGTQVTVSS”, which “polyreactivity (PSR sort gate)” value is on record?
A: high polyreactivity
